Format in all cases: biochemical
Data set [1] is described as follows: HPLC of final methionine and succinic acid after one-hour reaction with O-succinylhomoserine. To be noted: from O-succinylhomoserine. On the procedure:
(§1) First, O-succinylhomoserine (Sigma, USA) was dissolved in 0.1 M potassium phosphate buffer (pH 7.5) with the concentration of 3 mM. Pyridoxal 5′-phosphate (Sigma, USA) used as a coenzyme was added into the reaction solution with the final concentration of 10 μM. Methylmercaptan (Methylmercaptan, Tokyo Kasei Organic Chemicals, Japan) used as another substrate was added into the reaction solution with the final concentration of 2 mM. 1 ml of the reaction solution was placed in 37° C., to which 10 μL of each enzyme solution (protein conc.: 5 mg/ml) was added. 100 μL of the reaction solution was collected every 5-10 minutes and added into 900 μL of 4 mg/ml DTNB (Sigma, USA) solution. OD415 was measured to confirm the on-going of the reaction.
Upon completion of one-hour reaction, HPLC was performed to confirm the final productions of methionine and succinic acid.

Data set [2] is described as follows: HPLC of final methionine and acetic acid after one-hour reaction with O-acetylhomoserine. The conditions noted are these: from O-acetylhomoserine. On the procedure: as §1
(§2) Experiment was performed with O-acetylhomoserine by the same manner as described in Example <3-20>. O-acetylhomoserine was purified from the supernatant of fermented solution. The same reaction solutions and enzyme solutions as used for the experiment with O-succinylhomoserine were used for the reaction. […] Upon completion of one-hour reaction, HPLC was performed to confirm the final productions of methionine and […].

A short description of data set [3]: Conversion reaction of O-acetylhomoserine with methylmercaptan by enzyme solutions (DTNB, OD415). The conditions noted are these: OAHS as a substrate. Here is the method:
as §1
DTNB was reacted with SH group of methylmercaptan remaining in the reaction solution and thus synthesized a yellow substance. Thus, whether the reaction was going on or not was checked by observing the disappearance of yellow color of the reaction solution resulted from the conversion reaction of methylmercaptan into methionine.
Experiment was performed with O-acetylhomoserine by the same manner as described in Example <3-20>. O-acetylhomoserine was purified from the supernatant of fermented solution. The same reaction solutions and enzyme solutions as used for the experiment with O-succinylhomoserine were used for the reaction. […]

Data set [4] can be described thus: Feed-back inhibition of converting enzyme by methionine, OAHS as substrate. The conditions noted are these: presence of methionine. On the procedure: as §2
Feed-back inhibition in the presence or absence of methionine was identified by the same manner as described in Examples <3-20> and <3-21>. The reaction solutions were prepared by the same manner above and the same reaction was performed by adding or not adding 5 g/L of methionine in the each reaction solution. The reaction speed in the reaction solution without methionine was regarded as 100%, based on which the remaining activity in the presence of methionine was calculated as %.

B1: Escherichia Coli K12 MetB: cystathionine gamma synthase derived from E. coli, cell extract enzyme solution (protein, UniProt P00935 1-386, looked up)
Cystathionine gamma-synthase: MTRKQATIAVRSGLNDDEQYGCVVPPIHLSSTYNFTGFNEPRAHDYSRRGNPTRDVVQRALAELEGGAGAVLTNTGMSAIHLVTTVFLKPGDLLVAPHDCYGGSYRLFDSLAKRGCYRVLFVDQGDEQALRAALAEKPKLVLVESPSNPLLRVVDIAKICHLAREVGAVSVVDNTFLSPALQNPLALGADLVLHSCTKYLNGHSDVVAGVVIAKDPDVVTELAWWANNIGVTGGAFDSYLLLRGLRTLVPRMELAQRNAQAIVKYLQTQPLVKKLYHPSLPENQGHEIAARQQKGFGAMLSFELDGDEQTLRRFLGGLSLFTLAESLGGVESLISHAATMTHAGMAPEARAAAGISETLLRISTGIEDGEDLIADLENGFRAANKG
Take B1: in data set [1], the “amount of Methionine” value amounted to 0.14 g/L and the “amount of Succinic acid” value is 0.1 g/L.

B2: Leptospira meyeri MetY: O-acetylhomoserine sulfhydrylase derived from Leptospira meyeri (protein, UniProt P94890 1-442, looked up)
O-acetyl-L-homoserine …: MVGPSGESMPRNFKPETIALHGGQEPDPTTTSRAVPLYQTTSYVFKDTDHAARLFGLQEFGNIYTRLMNPTTDVLEKRVAALEGGVAALATASGQSAEMLALLNIVEAGQEIVASSSLYGGTYNLLHYTFPKLGIKVHFVDQSDPENFRKASNDKTRAFYAETLGNPKLDTLDIAAVSKVAKEVGVPLVIDNTMPSPYLVNPLKHGADIVVHSLTKFLGGHGTSIGGIIIDGGSFNWGNGKFKNFTEPDPSYHGLKFWEVFGKFEPFGGVNIAFILKARVQGLRDLGPAISPFNAWQILQGVETLPLRMERHSGNALKVAEFLQKHPKIEWVNYPGLSTDKNYATAKKYHERGLFGAIVGFEIKGGVEKAKKFIDGLELFSLLANIGDAKSLAIHPASTTHQQLTGPEQISAGVTPGFVRLSVGLENIDDILVDLEEALKNI
Consider B2, for which, in data set [2], the “amount of Acetic acid” value is reported as 0.05 g/L and the “amount of Methionine” value was determined as 0.15 g/L. In addition, in data set [3], the “enzyme activity with O-acetylhomoserine (FIG. 6), in words” value is recorded as “high enzyme activities”. Besides, in data set [4], the “inhibition of enzyme activity by methionine, in words” value is recorded as “inhibited by methionine”.

B3: Pseudomonas aurogenosa MetZ: O-succinylhomoserine sulfhydrylase derived from Pseudomonas aeruginosa, cell extract enzyme solution (protein, UniProt P55218 1-403, looked up)
O-succinylhomoserine …: MTQDWDAGRLDSDLEGAAFDTLAVRAGQRRTPEGEHGEALFTTSSYVFRTAADAAARFAGEVPGNVYSRYTNPTVRTFEERIAALEGAEQAVATASGMSAILALVMSLCSSGDHVLVSRSVFGSTISLFDKYFKRFGIQVDYPPLSDLAAWEAACKPNTKLFFVESPSNPLAELVDIAALAEIAHAKGALLAVDNCFCTPALQQPLKLGADVVIHSATKYIDGQGRGMGGVVAGRGEQMKEVVGFLRTAGPTLSPFNAWLFLKGLETLRIRMQAHSASALALAEWLERQPGIERVYYAGLPSHPQHELARRQQSGFGAVVSFDVKGGRDAAWRFIDATRMVSITTNLGDTKTTIAHPATTSHGRLSPEDRARAGIGDSLIRVAVGLEDLDDLKADMARGLAAL
modifications: cell extract
notes: O-succinylhomoserine sulfhydrylase derived from Pseudomonas aeruginosa, cell extract enzyme solution
Regarding B3, in data set [1], the “amount of Methionine” value is 0.22 g/L and the “amount of Succinic acid” value came out at 0.17 g/L.

For the origin of these results see US9029105B2, “Microorganism producing L-methionine precursor and method of producing L-methionine and organic acid from the L-methionine precursor” (CJ Cheiljedang Corporation, priority 2006, dated 2015).
